Measured values from patent US20230212319A1, “NOVEL ANTIGEN BINDING DOMAINS AND SYNTHETIC ANTIGEN RECEPTORS INCORPORATING THE SAME” (University of Southern California, priority 2020, published 2023).

What follows are molecules tested on L363 cells (assay: JNG assay, co-culture with L363 cells). Settings: co-culture with L363.
Assay type: cell-based
Protocol: Cellular supernatant is collected and assayed for the induction of cytokines (e.g., IL2).
JNG (Jurkat cells expressing EGFP under an NFAT promoter) were infected with lentiviral vectors encoding different single chain and multi-chain SARs by spinfection in the presence of 8 µg/ml of Polybrene® (Sigma, Catalog no. H9268). The Jurkat-NFAT-GFP cells are engineered in such a way that the IL-2 promoter, which carries NFAT binding sites, is cloned upstream of the GFP gene. These cells have been used to study signaling via TCR and CAR. The different SARs were stably expressed in Jurkat NFAT-GFP cells by lentiviral mediated gene transfer, followed by selection with puromycin or blasticidin. No drug selection was used in case the construct lacked an antibiotic resistance gene. The SAR-expressing Jurkat-NFAT-GFP cells were cocultured with the target cells at E:T ratio of approximately 1:2 for approximately 4 hours to 18 hours. When the interaction between SIRs and their target antigen results in activation of the NFAT pathway, GFP expression is induced. […] GFP expression was monitored by FACS analysis. The Jurkat-NFAT-GFP (parental) cells were used as control. The structure of different constructs can be determined based on their names. […] The sequence of the other constructs in the table can be similarly determined from their names and by referring to the different Tables of this disclosure that provide the names and SEQ ID NO of the different modules. Alternatively, the composition and modular architecture of the different SAR constructs can be determined from their sequences by bioinformatics tools, including using nucleic acid and amino acids homology searches. A SAR is considered positive in the assay in case the SAR expressing Jurkat-NFAT-GFP cells show greater % GFP positive cells when cultured with the target cell line as compared to parental Jurkat-NFAT-GFP cells. […] In general, the number +/-, +, 2+, 3+, 4+, 5+ refer to approximately 5%, 10%, 20%, 30%, 40% and 50% GFP positive cells. The % of GFP induction in the above assay is dependent not only the relative strength of the SAR but also, among other factors, on the relative level of expression of the SAR in the JNG cells and the relative level of expression of the target antigen in the target cell line. To control for the difference in gene transduction efficiency of the different SAR constructs, the experiment was conducted with JNG cells transduced with SAR constructs co-expressing a drug resistance gene (e.g., puromycin or PAC) followed by drug selection to generate a stable population of SAR-expressing cells. It is to be noted that the drug resistance gene (e.g., PAC) in the SAR constructs is optional and in vivo studies were conducted with SAR constructs lacking the PAC gene.

Row | Molecule | NFAT-GFP ASSAY: L363
1 | 22062 (protein) MALPVTALLLPLALLLHAARPQVQLVESGGGLVQPGGSLRLSCAASGFTFTNHAMSWVRQAPGKGLELVSSISGNGRTTYYADSVKGRFTISRDISKNTLDLQMNSLRAEDTAVYYCAKDGGETLVDSRGQGTLVTVSSLEVAALEREDLKNVFPPEVAVFEPSEAEISHTQKATLVCLATGFYPDHVELSWWVNGKEVHSGVCTDPQPLKEQPALNDSRYCLSSRLRVSATFWQNPRNHFRCQVQFYGLSENDEWTQDRAKPVTQIVSAEAWGRADCGFTSESYQQGVLSATILYEILLGKATLYAVLVSALVLMAMVKRKDSRGRAKRSGSGATNFSLLKQAGDVEENPGPTSMDWIWRILFLVGAATGAHSFEEVQLLESGGGLVQPGGSLRLSCAASGFTFSSYAMSWVRQAPGKGLEWVSSISGSGDYIYYADSVKGRFTISRDISKNTLYLQMNSLRAEDTAVYYCAKEGTGANSSLADYRGQGTLVTVSSTRIQNPDPAVYQLRDSKSSDKSVCLFTDFDSQTNVSQSKDSDVYITDKCVLDMRSMDFKSNSAVAWSNKSDFACANAFNNSIIPEDTFFPSPESSCDVKLVEKSFETDTNLNFQNLSVIGFRILLLKVAGFNLLMTLRLWSSRAKRSGSGVKQTLNFDLLKLAGDVESNPGPSRGHMTEYKPTVRLATRDDVPRAVRTLAAAFADYPATRHTVDPDRHIERVTELQELFLTRVGLDIGKVWVADDGAAVAVWTTPESVEAGAVFAEIGPRMAELSGSRLAAQQQMEGLLAPHRPKEPAWFLATVGVSPDHQGKGLGSAVVLPGVEAAERAGVPAFLETSAPRNLPFYERLGFTVTADVEVPEGPRTWCMTRKPGA | L363 (+/-) (refer to approximately 5%, 10%, 20%, 30%, 40% and 50% GFP positive cells)
2 | 21988 (protein) MALPVTALLLPLALLLHAARPEVQLLESGGGLVQPGGSLRLSCAASGFTFSSYAMSWVRQAPGKGLEWVSSISGSGDYIYYADSVKGRFTISRDISKNTLYLQMNSLRAEDTAVYYCAKEGTGANSSLADYRGQGTLVTVSSLEDLKNVFPPEVAVFEPSEAEISHTQKATLVCLATGFYPDHVELSWWVNGKEVHSGVCTDPQPLKEQPALNDSRYCLSSRLRVSATFWQNPRNHFRCQVQFYGLSENDEWTQDRAKPVTQIVSAEAWGRADCGFTSESYQQGVLSATILYEILLGKATLYAVLVSALVLMAMVKRKDSRGRAKRSGSGATNFSLLKQAGDVEENPGPTSMDWIWRILFLVGAATGAHSFEVQLLESGGGLIQPGGSLRLSCAASGFTFSSHAMTWVRQAPGKGLEWVSAISGSGDYTHYADSVKGRFTISRDNSKNTVYLQMNSLRAEDSAVYYCAKDEDGGSLLGHRGQGTLVTVSSTRIQNPDPAVYQLRDSKSSDKSVCLFTDFDSQTNVSQSKDSDVYITDKCVLDMRSMDFKSNSAVAWSNKSDFACANAFNNSIIPEDTFFPSPESSCDVKLVEKSFETDTNLNFQNLSVIGFRILLLKVAGFNLLMTLRLWSSRAKRSGSGVKQTLNFDLLKLAGDVESNPGPSRGHMTEYKPTVRLATRDDVPRAVRTLAAAFADYPATRHTVDPDRHIERVTELQELFLTRVGLDIGKVWVADDGAAVAVWTTPESVEAGAVFAEIGPRMAELSGSRLAAQQQMEGLLAPHRPKEPAWFLATVGVSPDHQGKGLGSAVVLPGVEAAERAGVPAFLETSAPRNLPFYERLGFTVTADVEVPEGPRTWCMTRKPGA | + (refer to approximately 5%, 10%, 20%, 30%, 40% and 50% GFP positive cells)
3 | 22016 (protein) MDWIWRILFLVGAATGAHSQLQLQESGPGLVKPSETLSLTCTVSGGSVSSSSYYWGWIRQPPGKRLELIGSIYYGGSTYFNPSLKTRVTISVDTSKNQFSLKLSSVTAADTAVYYCAGGDTYGPVGQWPSDYRGQGTLVTVSSLEDLKNVFPPEVAVFEPSEAEISHTQKATLVCLATGFYPDHVELSWWVNGKEVHSGVCTDPQPLKEQPALNDSRYCLSSRLRVSATFWQNPRNHFRCQVQFYGLSENDEWTQDRAKPVTQIVSAEAWGRADCGFTSESYQQGVLSATILYEILLGKATLYAVLVSALVLMAMVKRKDSRGRAKRSGSGATNFSLLKQAGDVEENPGPTSMDWIWRILFLVGAATGAHSFEQVQLVESGGGLVQPGGSLRLSCAASGFTFTNHAMSWVRQAPGKGLELVSSISGNGRTTYYADSVKGRFTISRDISKNTLDLQMNSLRAEDTAVYYCAKDGGETLVDSRGQGTLVTVSSTRIQNPDPAVYQLRDSKSSDKSVCLFTDFDSQTNVSQSKDSDVYITDKCVLDMRSMDFKSNSAVAWSNKSDFACANAFNNSIIPEDTFFPSPESSCDVKLVEKSFETDTNLNFQNLSVIGFRILLLKVAGFNLLMTLRLWSSRAKRSGSGVKQTLNFDLLKLAGDVESNPGPSRGHMTEYKPTVRLATRDDVPRAVRTLAAAFADYPATRHTVDPDRHIERVTELQELFLTRVGLDIGKVWVADDGAAVAVWTTPESVEAGAVFAEIGPRMAELSGSRLAAQQQMEGLLAPHRPKEPAWFLATVGVSPDHQGKGLGSAVVLPGVEAAERAGVPAFLETSAPRNLPFYERLGFTVTADVEVPEGPRTWCMTRKPGA | +/- (refer to approximately 5%, 10%, 20%, 30%, 40% and 50% GFP positive cells)
4 | 21989 (protein) MALPVTALLLPLALLLHAARPQVQLVESGGGLVQPGGSLRLSCAASGFTFTNHAMSWVRQAPGKGLELVSSISGNGRTTYYADSVKGRFTISRDISKNTLDLQMNSLRAEDTAVYYCAKDGGETLVDSRGQGTLVTVSSLEDLKNVFPPEVAVFEPSEAEISHTQKATLVCLATGFYPDHVELSWWVNGKEVHSGVCTDPQPLKEQPALNDSRYCLSSRLRVSATFWQNPRNHFRCQVQFYGLSENDEWTQDRAKPVTQIVSAEAWGRADCGFTSESYQQGVLSATILYEILLGKATLYAVLVSALVLMAMVKRKDSRGRAKRSGSGATNFSLLKQAGDVEENPGPTSMDWIWRILFLVGAATGAHSFEEVQLLESGGGLVQPGGSLRLSCAASGFTFSSYAMSWVRQAPGKGLEWVSSISGSGDYIYYADSVKGRFTISRDISKNTLYLQMNSLRAEDTAVYYCAKEGTGANSSLADYRGQGTLVTVSSTRIQNPDPAVYQLRDSKSSDKSVCLFTDFDSQTNVSQSKDSDVYITDKCVLDMRSMDFKSNSAVAWSNKSDFACANAFNNSIIPEDTFFPSPESSCDVKLVEKSFETDTNLNFQNLSVIGFRILLLKVAGFNLLMTLRLWSSRAKRSGSGVKQTLNFDLLKLAGDVESNPGPSRGHMTEYKPTVRLATRDDVPRAVRTLAAAFADYPATRHTVDPDRHIERVTELQELFLTRVGLDIGKVWVADDGAAVAVWTTPESVEAGAVFAEIGPRMAELSGSRLAAQQQMEGLLAPHRPKEPAWFLATVGVSPDHQGKGLGSAVVLPGVEAAERAGVPAFLETSAPRNLPFYERLGFTVTADVEVPEGPRTWCMTRKPGA | + (refer to approximately 5%, 10%, 20%, 30%, 40% and 50% GFP positive cells)
5 | 22061 (protein) MALPVTALLLPLALLLHAARPQVQLVESGGGLVQPGGSLRLSCAASGFTFTNHAMSWVRQAPGKGLELVSSISGNGRTTYYADSVKGRFTISRDISKNTLDLQMNSLRAEDTAVYYCAKDGGETLVDSRGQGTLVTVSSLEGSGGGGSGGGGSGEDLKNVFPPEVAVFEPSEAEISHTQKATLVCLATGFYPDHVELSWWVNGKEVHSGVCTDPQPLKEQPALNDSRYCLSSRLRVSATFWQNPRNHFRCQVQFYGLSENDEWTQDRAKPVTQIVSAEAWGRADCGFTSESYQQGVLSATILYEILLGKATLYAVLVSALVLMAMVKRKDSRGRAKRSGSGATNFSLLKQAGDVEENPGPTSMDWIWRILFLVGAATGAHSFEEVQLLESGGGLVQPGGSLRLSCAASGFTFSSYAMSWVRQAPGKGLEWVSSISGSGDYIYYADSVKGRFTISRDISKNTLYLQMNSLRAEDTAVYYCAKEGTGANSSLADYRGQGTLVTVSSTRIQNPDPAVYQLRDSKSSDKSVCLFTDFDSQTNVSQSKDSDVYITDKCVLDMRSMDFKSNSAVAWSNKSDFACANAFNNSIIPEDTFFPSPESSCDVKLVEKSFETDTNLNFQNLSVIGFRILLLKVAGFNLLMTLRLWSSRAKRSGSGVKQTLNFDLLKLAGDVESNPGPSRGHMTEYKPTVRLATRDDVPRAVRTLAAAFADYPATRHTVDPDRHIERVTELQELFLTRVGLDIGKVWVADDGAAVAVWTTPESVEAGAVFAEIGPRMAELSGSRLAAQQQMEGLLAPHRPKEPAWFLATVGVSPDHQGKGLGSAVVLPGVEAAERAGVPAFLETSAPRNLPFYERLGFTVTADVEVPEGPRTWCMTRKPGA | L363 (2+) (refer to approximately 5%, 10%, 20%, 30%, 40% and 50% GFP positive cells)
